Legend:
[1] = biological target: Escherichia coli YidC R366E/F433S, cysteine-less, with a cysteine introduced at position 405 (Escherichia coli) (UniProt P25714); test: FRET or BRET; labelled Pf3 coat added in steps (60, 60, 150, 150, 150, 300, 300 nM; final 1.17 uM; 1 min each) to DOPC proteoliposomes with 300 nM labelled YidC; excitation 500 nm, acceptor signal at 669 nm; room temperature
[2] = biological target: Escherichia coli YidC, cysteine-less, with a cysteine introduced at position 405 (WT in the FRET assay) (Escherichia coli) (UniProt P25714); test: as above

Substance “Pf3 coat protein, fluorescently labelled at residue 48 (from UniProt P03623 1-44) (natural protein)” has a Kd [1] of 349 nM and a Kd [2] of 241 nM.
